The text below walks through data of patent publication US20050020519A1, “Modulation of insulin-regulated aminopeptidase (irap)/angiotensin iv (at4) receptor activity” (priority 2001, published 2005).

One may read the IC50 as the concentration needed to halve the response being measured. Read a high IC50 as lower potency. As a reminder, the inhibition is the share of the control response that was lost under treatment. The low end stands for a weak effect, the high end for a strong effect.

Entries after “also recorded” stand apart in the source; their conditions may differ. Read-outs that look alike come from different tables or passages of the source. Where no end group is shown, it is not given here. [ ]: non-standard residue; d: D form. Cyt = cystine residue, as named in the source; pGlu = O=C1CC[C@@H](C(=O)O)N1

For experiment [1], the target named is T1, IRAP (Homo sapiens, UniProt Q9UIQ6).
T1 construct: expressed in transfected cells; host or cells: HEK 293T cells (solubilised membrane protein)
Briefly: Degradation of peptides by IRAP expressed in HEK 293T cells, HPLC with mass spectrometric detection. It counts as biochemical. Particulars: for Substrate disappearance over 4 hr: 37° C., hIRAP transfected HEK 293T membranes, (=UT) equals untransfected control cells; for Products Identified: incubation at 37° C. with solubilized membrane protein from hIRAP transfected HEK 293T cells; for cleavage by IRAP: up to 6 hr.
Protocol: At each time point (0, 0.5, 1, 2, 4 & 6 hr), an aliquot containing 5 μg peptide was removed, and the reaction stopped by addition of 4 volumes methanol/1% trifluoroacetic acid (TPA). Samples were dried on a centrifugal vacuum evaporator prior to HPLC analysis with on-line mass spectrometric detector. […] Fragments were identified following mass spectral analysis, using Agilent ChemStation deconvolution software.

Experiment [2] concerns the target human insulin-regulated aminopeptidase (IRAP) / angiotensin IV (AT4) receptor (human) (UniProt Q9UIQ6). The experiment is described as follows: radioligand binding, HEK 293 and CHO cells transfected with IRAP cDNA.
Experiment [3] shares this target. The experiment is described as follows: competitive inhibition of L-leucine-β-naphthylamide cleavage by solubilised membranes of IRAP-transfected HEK 293 cells; Ki from IC50=Ki(1+[S]/Km).
The target is the same in experiment [4]. The experiment is described as follows: radioligand displacement of 125I-Nle-Ang IV. On the technique in general: Displacement assays read how much labelled ligand stays bound in the presence of the test substance.
Experiment [5] has the same target. Briefly: cell-based or functional assay.
In experiment [6] the target is T1, IRAP. The experiment is described as follows: IRAP enzymatic activity, hydrolysis of L-leucine-β-naphthylamide (fluorescence). It counts as biochemical. From the text:
For example, Hek293 cells stably transfected with a eukaryotic expression vector expressing the AT4 receptor gene may be utilized. An example of this is the vector pcDNA-3 containing the cDNA encoding the full length AT4 receptor. Two assay systems are used, one for each spliced variant of the human AT4 receptor gene. The assay system involves the measurement of the rate of hydrolysis of L-leucyl β-naphthylamide by the AT4 receptor. The rate of hydrolysis by the transfected cells is followed by recording the increase in fluorescence (excitation at 340 nm, emission at 410 nm) using a purpose-designed fluorimeter. Test compounds are added to the assay system, and their effects on the hydrolysis of L-leucyl β-naphthylamide are a direct indicator of their modulation of AT4 receptor activity.
Crude membranes were prepared from HEK 293 cells stably transfected with pcDNA-3 containing the cDNA encoding the full length AT4 receptor/IRAP, using the same method as that described for bovine adrenal membranes. The membranes were solubilised in 50 mM Tris-HCl containing 1% Triton-X100 at 4° C. for 16 h. The IRAP enzymatic activity was determined by the hydrolysis of a synthetic substrate, L-leucine-β-naphthylamide, and monitored by the release of a fluorogenic product on a spectrophotometer set at excitation 340 nm and emission 410 nm. One hundred μM of the substrate was added to 10 μg of solubilised membranes, and the increase in fluorescence monitored for 10 min.
Samples were assayed 2-3 times in triplicate, except controls, which were performed 5 times in triplicate.

The target of the next experiment is T2, AT4 receptor (Bos taurus, UniProt F1N1Q8).
T2 construct: from tissue; host or cells: bovine adrenal gland membranes
T2 sequence (F1N1Q8 1-1022): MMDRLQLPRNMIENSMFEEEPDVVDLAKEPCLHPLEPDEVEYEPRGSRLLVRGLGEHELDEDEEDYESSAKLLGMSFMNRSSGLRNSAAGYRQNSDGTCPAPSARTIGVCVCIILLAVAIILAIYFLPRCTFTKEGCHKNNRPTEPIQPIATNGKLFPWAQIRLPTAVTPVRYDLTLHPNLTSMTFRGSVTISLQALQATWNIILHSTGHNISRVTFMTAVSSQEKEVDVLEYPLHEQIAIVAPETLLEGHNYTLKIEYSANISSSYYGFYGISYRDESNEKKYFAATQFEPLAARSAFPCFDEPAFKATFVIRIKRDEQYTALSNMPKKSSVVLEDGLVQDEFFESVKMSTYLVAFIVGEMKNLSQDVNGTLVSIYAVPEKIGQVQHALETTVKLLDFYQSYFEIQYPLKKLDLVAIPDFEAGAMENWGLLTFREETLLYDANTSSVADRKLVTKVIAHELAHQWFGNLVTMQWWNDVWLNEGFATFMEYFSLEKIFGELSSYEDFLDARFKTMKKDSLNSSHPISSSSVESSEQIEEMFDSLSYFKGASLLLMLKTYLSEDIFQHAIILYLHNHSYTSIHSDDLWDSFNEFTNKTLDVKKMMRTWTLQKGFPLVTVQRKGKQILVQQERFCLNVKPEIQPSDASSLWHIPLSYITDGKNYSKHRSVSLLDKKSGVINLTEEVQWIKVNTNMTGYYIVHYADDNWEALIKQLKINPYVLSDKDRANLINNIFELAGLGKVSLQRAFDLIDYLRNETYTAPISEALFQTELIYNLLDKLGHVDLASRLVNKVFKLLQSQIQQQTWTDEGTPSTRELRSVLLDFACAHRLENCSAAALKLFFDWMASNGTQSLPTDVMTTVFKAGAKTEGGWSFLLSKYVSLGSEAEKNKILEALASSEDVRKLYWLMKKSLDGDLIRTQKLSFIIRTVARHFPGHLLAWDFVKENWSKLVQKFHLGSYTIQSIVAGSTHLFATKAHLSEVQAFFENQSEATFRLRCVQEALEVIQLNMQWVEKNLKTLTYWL
Briefly: AT4 radioreceptor assay, ^125I-Ang IV binding to bovine adrenal membranes. Here is the method:
The AT4 radioreceptor assay was used to screen the sheep brain extracts for AT4 receptor modulatory activity. The membranes were prepared using bovine adrenal glands obtained from the abattoir. The adrenals were diced, homogenized in ice-cold hypotonic buffer (50 mM Tris, 5 mM EDTA, pH 7.4) and centrifuged for 10 min at 500 g. […] The resulting pellets were re-homogenized in hypotonic buffer. […] The samples were incubated for 2 h at 37° C., and the bound ligand was separated on Whatman GF/B glass fibre filters.

Another experiment has as its target T3, IRAP (AT4 receptor) (Homo sapiens, UniProt Q9UIQ6).
T3 construct: expressed in transfected cells; host or cells: HEK 293 cells (membranes)
The experiment is described as follows: ^125I-Nle^1 Ang IV binding to membranes of HEK 293 cells transfected with IRAP cDNA. From the text: The amount of radioligand bound to the membranes from HEK 293 cells transfected with IRAP cDNA was expressed as a percentage of radioligand bound to membranes from HEK 293 cells transfected with control plasmids.

The test system of another experiment is rats. Particulars: rat, in vivo, iv; cited from earlier work.
The next experiment relates to 3T3L1 cells. Briefly: 2-deoxyglucose uptake in differentiated 3T3L1 adipocytes.
The target in experiment [7] is human insulin-regulated aminopeptidase (IRAP) / angiotensin IV (AT4) receptor (human) (UniProt Q9UIQ6). Briefly: cell-based or functional assay. The source holds these as a separate data set.
human insulin-regulated aminopeptidase (IRAP) / angiotensin IV (AT4) receptor (human), sequence (Q9UIQ6 whole entry): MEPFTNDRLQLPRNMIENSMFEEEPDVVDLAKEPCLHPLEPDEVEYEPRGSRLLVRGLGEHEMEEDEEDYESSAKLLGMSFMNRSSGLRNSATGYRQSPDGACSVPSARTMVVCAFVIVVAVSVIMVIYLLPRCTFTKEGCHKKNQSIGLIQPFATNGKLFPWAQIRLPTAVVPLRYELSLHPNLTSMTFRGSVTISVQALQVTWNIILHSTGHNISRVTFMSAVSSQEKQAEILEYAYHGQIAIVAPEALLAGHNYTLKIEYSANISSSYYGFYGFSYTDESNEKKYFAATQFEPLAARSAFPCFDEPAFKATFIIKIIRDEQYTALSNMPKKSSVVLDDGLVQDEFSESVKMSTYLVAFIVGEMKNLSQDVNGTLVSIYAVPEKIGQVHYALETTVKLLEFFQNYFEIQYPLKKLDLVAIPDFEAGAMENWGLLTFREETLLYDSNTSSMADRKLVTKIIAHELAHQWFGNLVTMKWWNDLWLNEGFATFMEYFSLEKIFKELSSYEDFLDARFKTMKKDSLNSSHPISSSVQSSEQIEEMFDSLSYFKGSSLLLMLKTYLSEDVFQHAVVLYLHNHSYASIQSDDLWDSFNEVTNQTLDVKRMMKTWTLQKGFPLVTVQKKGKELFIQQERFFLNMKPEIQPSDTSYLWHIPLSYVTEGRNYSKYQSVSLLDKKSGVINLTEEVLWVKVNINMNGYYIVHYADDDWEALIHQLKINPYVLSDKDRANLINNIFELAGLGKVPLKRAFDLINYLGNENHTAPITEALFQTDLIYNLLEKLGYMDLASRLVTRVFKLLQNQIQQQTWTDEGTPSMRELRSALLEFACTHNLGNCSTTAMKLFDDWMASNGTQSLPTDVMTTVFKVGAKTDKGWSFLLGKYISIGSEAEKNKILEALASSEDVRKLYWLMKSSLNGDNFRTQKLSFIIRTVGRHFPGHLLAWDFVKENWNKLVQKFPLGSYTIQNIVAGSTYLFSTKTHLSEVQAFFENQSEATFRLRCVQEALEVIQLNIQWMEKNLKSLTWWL

T1 sequence (Q9UIQ6 whole entry): as above
T3 sequence (Q9UIQ6 whole entry): as above
Protocol for 3T3L1 cells: The effect of IRAP inhibitors on the regulation of glucose uptake was determined in 3T3L1 cells. 3T3L1 fibroblasts were differentiated by the addition of DMEM containing 5% fetal calf serum, 4 μg/ml insulin, 0.25 mM dexamethasone and 0.5 mM 3-isobutyl-1-methyl-xanthine. […] The reaction was stopped after 10 min by washing the cells in PBS. The cells were then solubilized in 0.5 N NaOH and counted.

Regarding angiotensin III [Ang III], in the experiment with IRAP [1], the “Substrate disappearance over 4 hr” value is reported as 7% (=UT) and the “Products Identified” value was “RVYIHP”.
The molecule Nle^1-Ang IV (Nle-YIHPF) (peptide) displayed a fold increase in specific binding sites over control cells in [2] of 10 to 20 fold. Moreover, the Ki in experiment [3] was 340 nM. Further, the half-maximal inhibitory concentration (IC50) in [4] is 3.32 nM. In [5], this molecule returned an IC50 inhibition leucine β-naphthylamide of 600 nM and a Substrate disappearance over 4 hr of 16%.
Turning to `NC(=O)CC[C@@H]1NC(=O)[C@H](Cc2ccccc2)NC(=O)[C@H](Cc2ccc(O)cc2)NC(=O)[C@@H](N)CSSC[C@@H](C(=O)N2CCC[C@H]2C(=O)N[C@@H](CCCN=C(N)N)C(=O)NCC(N)=O)NC(=O)[C@H](CC(N)=O)NC1=O` [AVP, arginine-vasopressin], at IRAP [6], the half-inhibitory concentration (IC50) is greater than 40000 nM. On IRAP [1], the “Substrate disappearance over 4 hr” value is listed as 58%, the “Products Identified” value is given as “YFQNCytPRG-NH2; also recorded: FQNCytPRG-NH2” and the “cleavage by IRAP” value was “most rapidly cleaved”.
On to “Angiotensin III (from UniProt P01019 26-32) (peptide)”, for which the Substrate disappearance over 4 hr in experiment [5] is 7%.
With “α-Endorphin (YGGFMTSEKSQTPLVT) [16 residues, first five identical to met-enkephalin]”, in the experiment with IRAP [1], the “Substrate disappearance over 4 hr” value is reported as “None”, the “Products Identified” value is “None” and the “cleavage by IRAP” value is listed as “not cleaved at all”.
In turn, “Neurotensin (from UniProt P30990 151-163) (peptide)” came in with a Substrate disappearance over 4 hr in experiment [5] of 22%.
As to VYPWT, on AT4 receptor (structure-activity study on LVVYPWTQRF), the “AT4 receptor/IRAP binding activity of fragment” value is “retained full AT4 receptor/IRAP binding activity”.
Take “arginine-vasopressin (from UniProt P01185 20-28) (peptide)”: in experiment [5], the IC50 of inhibition of L-leucine-β-naphthylamide cleavage was greater than 40000 nM.
Regarding `CC[C@H](C)[C@@H]1NC(=O)[C@H](Cc2ccc(O)cc2)NC(=O)[C@@H](N)CSSC[C@@H](C(=O)N2CCC[C@H]2C(=O)N[C@@H](CC(C)C)C(=O)NCC(N)=O)NC(=O)[C@H](CC(N)=O)NC(=O)[C@H](CCC(N)=O)NC1=O` [OXY, oxytocin], at IRAP [1], the “Substrate disappearance over 4 hr” value was 37%, the “Products Identified” value is listed as “YIQNCytPLG-NH2” and the “cleavage by IRAP” value was “most rapidly cleaved”.
On IRAP [6], `CC(C)[C@H](N)CN[C@@H](Cc1ccc(O)cc1)C(=O)N[C@H](CN[C@@H](Cc1c[nH]cn1)C(=O)N1CCC[C@H]1C(=O)N[C@@H](Cc1ccccc1)C(=O)O)C(C)C` [Divalinal - Ang IV] came in with a 50% inhibitory concentration (IC50) of 4000 nM and a Ki of 2250 nM. In addition, the “type of inhibition of IRAP” value at IRAP [6] (Lineweaver-Burk analysis) is given as “competitive inhibition”. For the same molecule, on IRAP [1], the “Substrate disappearance over 4 hr” value was “None”, the “Products Identified” value is given as “None” and the “cleavage by IRAP” value is “no cleavage”. This molecule also showed an IC50 on IRAP (AT4 receptor) of 845 nM. In addition, the “effect on the swim maze enhancement by Nle-angiotensin IV” value in the experiment on rats is given as “blocked”.
In the case of sar^1Ile^8-Ang II, in the experiment with IRAP [1], the “Substrate disappearance over 4 hr” value is recorded as “None” and the “Products Identified” value was “None”.
In the case of “GnRH: peptide tested as potential IRAP substrate”, in the experiment with IRAP [1], the “Substrate disappearance over 4 hr” value was “None”, the “Products Identified” value is “None” and the “cleavage by IRAP” value is “No cleavage”.
For the molecule angiotensin II (DRVYIHPF) [Ang II], in the experiment with IRAP [1], the “Substrate disappearance over 4 hr” value is given as “None”, the “Products Identified” value was “None” and the “cleavage by IRAP” value is “no cleavage”.
In experiment [5], “α-neo-Endorphin (from UniProt P01213 175-184) (peptide)” gave a Substrate disappearance over 4 hr of 9%.
On to `CC(C)C[C@@H](N)[C@H](O)C(=O)N[C@H](C(=O)N[C@H](C(=O)N[C@@H](CC(=O)O)C(=O)O)C(C)C)C(C)C` [amastatin], for which at 100 µM the inhibition at IRAP [6] (100 μM amastatin) was 25%.
Consider insulin, for which the “glucose uptake under insulin stimulation” value with 3T3L1 cells (0.7 nM insulin) is 13.5±2.6 pmol/min/well; in the experiment on 3T3L1 cells (70 nM insulin), 19.7±1.18 pmol/min/well.
As for “α-neo-Endorphin (YGGFLRKYPK) [opioid peptide, 10 residues]”, in the experiment with IRAP [1], the “Substrate disappearance over 4 hr” value is given as 9%; the “Products Identified” value is “GGFLRKYPK,; also recorded: GFLRKYPK, FLRKYPK”; the “cleavage by IRAP” value is given as “at least three N-terminal residues were cleaved”.
Consider KYLPGPLQ, for which the Ki at AT4 receptor (bovine adrenal membranes, synthetic peptides, read-out: affinity in competing for ^125I-Ang IV binding) was 1 to 5 nM.
“oxytocin (from UniProt P01178 20-28) (peptide)”: the Substrate disappearance over 4 hr in [5] was 37%.
The molecule `CC(C)C[C@H](NC(=O)[C@@H](O)[C@H](N)Cc1ccccc1)C(=O)O` [bestatin] showed an inhibition at 10 µM on IRAP [6] (10 μM bestatin) of 60%.
In turn, divalinal-Ang IV (peptide) displayed an IC50 inhibition leucine β-naphthylamide in experiment [5] of 4000 nM.
Turning to acetylated AVP [AcAVP], in the experiment with IRAP [1], the “Substrate disappearance over 4 hr” value is “None”, the “Products Identified” value is recorded as “None” and the “cleavage by IRAP” value was “No cleavage”.
Ang I: angiotensin peptide (DRVYIHPFHL): in the experiment with IRAP [1], the “Substrate disappearance over 4 hr” value is given as “None”, the “Products Identified” value was “None” and the “cleavage by IRAP” value was “no cleavage”.
As for “[pGlu^4Cyt^6]AVP(4-9) ([pGlu]N[Cyt]PRG; ends and bridges not checked; also: Cyt6: cystine at position 6, partner not given here) [pGlu^4Cyt^6AVP]”, in the experiment with IRAP [1], the “Substrate disappearance over 4 hr” value was “None”, the “Products Identified” value is recorded as “None” and the “cleavage by IRAP” value is “No cleavage”.
With Met-enkephalin, in the experiment with IRAP [1], the “Substrate disappearance over 4 hr” value is listed as 65%, the “Products Identified” value is “GGFM” and the “cleavage by IRAP” value is on record as “most rapidly cleaved”.
In turn, YGGFM (peptide, UniProt P01210 100-104, looked up) [Met-enkephalin] showed a Substrate disappearance over 4 hr in experiment [7] of 65%.
